This assay addresses E546N mutant human inducible NOS oxygenase/FMN (oxyFMN) construct (human) (UniProt P35228). The assay is described as follows: cross-linking; DSBU 250 uM with 5 uM iNOS oxyFMN (co-purified with CaM), 20 mM HEPES, 100 mM NaCl, 1 mM CaCl2, pH 7.5, 30 min, room temperature; SDS-PAGE, dimeric band digested in gel; LC-MS/MS on timsTOF (DDA-PASEF, then PRM-PASEF for quantitation), lysine-lysine cross-links only.
Chain of UniProt P35228 (P35228 71-723 E546N): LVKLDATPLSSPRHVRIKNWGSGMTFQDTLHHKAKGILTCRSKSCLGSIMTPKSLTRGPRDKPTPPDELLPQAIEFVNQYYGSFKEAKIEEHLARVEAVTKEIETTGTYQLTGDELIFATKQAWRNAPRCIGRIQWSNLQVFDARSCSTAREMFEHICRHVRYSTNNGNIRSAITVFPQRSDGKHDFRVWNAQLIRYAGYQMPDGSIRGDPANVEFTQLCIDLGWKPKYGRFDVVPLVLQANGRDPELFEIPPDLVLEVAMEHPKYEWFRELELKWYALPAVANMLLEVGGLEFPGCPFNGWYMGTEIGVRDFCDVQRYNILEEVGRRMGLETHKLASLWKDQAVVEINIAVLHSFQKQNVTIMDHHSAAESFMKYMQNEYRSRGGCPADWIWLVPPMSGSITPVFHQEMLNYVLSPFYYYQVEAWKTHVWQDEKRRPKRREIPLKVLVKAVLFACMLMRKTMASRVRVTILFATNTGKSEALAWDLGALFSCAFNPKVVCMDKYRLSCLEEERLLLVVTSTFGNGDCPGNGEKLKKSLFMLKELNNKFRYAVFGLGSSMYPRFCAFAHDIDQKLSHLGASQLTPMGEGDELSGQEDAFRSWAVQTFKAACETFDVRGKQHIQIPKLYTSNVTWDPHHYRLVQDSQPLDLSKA

As to “calmodulin (from UniProt P0DP23 1-149) (natural protein)”, the log2 fold-change (E546N/wt) of the abundance of cross-link 75–516 CaM-helix (intra) (log2(E546N/wt)) was -1.04.

The values are drawn from article PMC12597282.
